According to paper PMC5621659:

Experiments:
Experiment in all cases: ELISA
[1] = target: recombinant human insulin receptor (IR) (human) (UniProt P06213)
[2] = target: C-terminal truncated apoE3 (aa1-186)
[3] = target: C-terminal truncated apoE4 (aa1-186)

| percent reduction of insulin-IR binding at 16 μg/ml [1] [%] | percent reduction of binding against FL apoE [2] [%] | percent reduction of binding against FL apoE [3] [%] | Substance |
| --- | --- | --- | --- |
| 50 |  |  | recombinant human apoE4 (from UniProt P02649 19-317) (natural protein) |
|  | 50 | 30 | recombinant human insulin receptor (IR) (from UniProt P06213 28-1382) |
